T1: human calcitonin receptor (human, UniProt P30988 25-474)
T1 construct: whole, on cells; Membranes of BHK cells stably transfected with the human calcitonin receptor (Assay VII); also called hCTR; hCT
T1 sequence (looked up): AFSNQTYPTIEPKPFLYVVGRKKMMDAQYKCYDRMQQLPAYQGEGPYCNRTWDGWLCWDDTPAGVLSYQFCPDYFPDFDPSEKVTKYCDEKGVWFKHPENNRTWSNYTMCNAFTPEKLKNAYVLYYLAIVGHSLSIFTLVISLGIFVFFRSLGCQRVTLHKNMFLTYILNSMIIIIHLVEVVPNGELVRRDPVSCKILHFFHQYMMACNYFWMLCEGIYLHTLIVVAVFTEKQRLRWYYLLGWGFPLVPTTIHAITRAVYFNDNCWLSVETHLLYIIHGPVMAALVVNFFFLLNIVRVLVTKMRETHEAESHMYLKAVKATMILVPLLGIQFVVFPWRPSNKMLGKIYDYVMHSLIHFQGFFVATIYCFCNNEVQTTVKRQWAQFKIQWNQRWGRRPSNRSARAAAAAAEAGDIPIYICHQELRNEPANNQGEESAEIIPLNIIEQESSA

B1: N^ε1-[(4S)-4-carboxy-4-(19-carboxynonadecanoylamino)butanoyl]-[Asp14,Arg17,Pro21,Pro27,Pro34,Arg35]-h-amylin (peptide)
peptide: K([γGlu-C20 diacid])CNTATCATQRLADFLRHSSPNFGAIPSSTNVGPRTY-NH2
modifications: disulfide 2-7; N-terminus assumed
SMILES: CC[C@H](C)[C@H](NC(=O)[C@H](C)NC(=O)CNC(=O)[C@H](Cc1ccccc1)NC(=O)[C@H](CC(N)=O)NC(=O)[C@@H]1CCCN1C(=O)[C@H](CO)NC(=O)[C@H](CO)NC(=O)[C@H](Cc1c[nH]cn1)NC(=O)[C@H](CCCNC(=N)N)NC(=O)[C@H](CC(C)C)NC(=O)[C@H](Cc1ccccc1)NC(=O)[C@H](CC(=O)O)NC(=O)[C@H](C)NC(=O)[C@H](CC(C)C)NC(=O)[C@H](CCCNC(=N)N)NC(=O)[C@H](CCC(N)=O)NC(=O)[C@@H](NC(=O)[C@H](C)NC(=O)[C@@H]1CSSC[C@H](NC(=O)[C@@H](N)CCCCNC(=O)CC[C@H](NC(=O)CCCCCCCCCCCCCCCCCCC(=O)O)C(=O)O)C(=O)N[C@@H](CC(N)=O)C(=O)N[C@@H]([C@@H](C)O)C(=O)N[C@@H](C)C(=O)N[C@@H]([C@@H](C)O)C(=O)N1)[C@@H](C)O)C(=O)N1CCC[C@H]1C(=O)N[C@@H](CO)C(=O)N[C@@H](CO)C(=O)N[C@H](C(=O)N[C@@H](CC(N)=O)C(=O)N[C@H](C(=O)NCC(=O)N1CCC[C@H]1C(=O)N[C@@H](CCCNC(=N)N)C(=O)N[C@H](C(=O)N[C@@H](Cc1ccc(O)cc1)C(N)=O)[C@@H](C)O)C(C)C)[C@@H](C)O
B2: N^ε1-[(4S)-4-carboxy-4-(19-carboxynonadecanoylamino)butanoyl]-[Glu14,Arg17,Pro21,Pro27,Arg34,Glu35]-h-amylin (peptide)
peptide: K([γGlu-C20 diacid])CNTATCATQRLAEFLRHSSPNFGAIPSSTNVGRETY-NH2
modifications: disulfide 2-7; N-terminus assumed
SMILES: CC[C@H](C)[C@H](NC(=O)[C@H](C)NC(=O)CNC(=O)[C@H](Cc1ccccc1)NC(=O)[C@H](CC(N)=O)NC(=O)[C@@H]1CCCN1C(=O)[C@H](CO)NC(=O)[C@H](CO)NC(=O)[C@H](Cc1c[nH]cn1)NC(=O)[C@H](CCCNC(=N)N)NC(=O)[C@H](CC(C)C)NC(=O)[C@H](Cc1ccccc1)NC(=O)[C@H](CCC(=O)O)NC(=O)[C@H](C)NC(=O)[C@H](CC(C)C)NC(=O)[C@H](CCCNC(=N)N)NC(=O)[C@H](CCC(N)=O)NC(=O)[C@@H](NC(=O)[C@H](C)NC(=O)[C@@H]1CSSC[C@H](NC(=O)[C@@H](N)CCCCNC(=O)CC[C@H](NC(=O)CCCCCCCCCCCCCCCCCCC(=O)O)C(=O)O)C(=O)N[C@@H](CC(N)=O)C(=O)N[C@@H]([C@@H](C)O)C(=O)N[C@@H](C)C(=O)N[C@@H]([C@@H](C)O)C(=O)N1)[C@@H](C)O)C(=O)N1CCC[C@H]1C(=O)N[C@@H](CO)C(=O)N[C@@H](CO)C(=O)N[C@H](C(=O)N[C@@H](CC(N)=O)C(=O)N[C@H](C(=O)NCC(=O)N[C@@H](CCCNC(=N)N)C(=O)N[C@@H](CCC(=O)O)C(=O)N[C@H](C(=O)N[C@@H](Cc1ccc(O)cc1)C(N)=O)[C@@H](C)O)C(C)C)[C@@H](C)O
B3: N^ε1-[(4S)-4-carboxy-4-(19-carboxynonadecanoylamino)butanoyl]-[Glu14,Arg17,Pro21,Pro27,His34,Glu35]-h-amylin (peptide)
peptide: K([γGlu-C20 diacid])CNTATCATQRLAEFLRHSSPNFGAIPSSTNVGHETY-NH2
modifications: disulfide 2-7; N-terminus assumed
SMILES: CC[C@H](C)[C@H](NC(=O)[C@H](C)NC(=O)CNC(=O)[C@H](Cc1ccccc1)NC(=O)[C@H](CC(N)=O)NC(=O)[C@@H]1CCCN1C(=O)[C@H](CO)NC(=O)[C@H](CO)NC(=O)[C@H](Cc1c[nH]cn1)NC(=O)[C@H](CCCNC(=N)N)NC(=O)[C@H](CC(C)C)NC(=O)[C@H](Cc1ccccc1)NC(=O)[C@H](CCC(=O)O)NC(=O)[C@H](C)NC(=O)[C@H](CC(C)C)NC(=O)[C@H](CCCNC(=N)N)NC(=O)[C@H](CCC(N)=O)NC(=O)[C@@H](NC(=O)[C@H](C)NC(=O)[C@@H]1CSSC[C@H](NC(=O)[C@@H](N)CCCCNC(=O)CC[C@H](NC(=O)CCCCCCCCCCCCCCCCCCC(=O)O)C(=O)O)C(=O)N[C@@H](CC(N)=O)C(=O)N[C@@H]([C@@H](C)O)C(=O)N[C@@H](C)C(=O)N[C@@H]([C@@H](C)O)C(=O)N1)[C@@H](C)O)C(=O)N1CCC[C@H]1C(=O)N[C@@H](CO)C(=O)N[C@@H](CO)C(=O)N[C@H](C(=O)N[C@@H](CC(N)=O)C(=O)N[C@H](C(=O)NCC(=O)N[C@@H](Cc1c[nH]cn1)C(=O)N[C@@H](CCC(=O)O)C(=O)N[C@H](C(=O)N[C@@H](Cc1ccc(O)cc1)C(N)=O)[C@@H](C)O)C(C)C)[C@@H](C)O
notes: also called compound 107
B4: N^ε1-[(4S)-4-carboxy-4-(19-carboxynonadecanoylamino)butanoyl]-[Asp14,Arg17,Pro21,Pro27,Pro34,Glu35]-h-amylin (peptide)
peptide: K([γGlu-C20 diacid])CNTATCATQRLADFLRHSSPNFGAIPSSTNVGPETY-NH2
modifications: disulfide 2-7; N-terminus assumed
SMILES: CC[C@H](C)[C@H](NC(=O)[C@H](C)NC(=O)CNC(=O)[C@H](Cc1ccccc1)NC(=O)[C@H](CC(N)=O)NC(=O)[C@@H]1CCCN1C(=O)[C@H](CO)NC(=O)[C@H](CO)NC(=O)[C@H](Cc1c[nH]cn1)NC(=O)[C@H](CCCNC(=N)N)NC(=O)[C@H](CC(C)C)NC(=O)[C@H](Cc1ccccc1)NC(=O)[C@H](CC(=O)O)NC(=O)[C@H](C)NC(=O)[C@H](CC(C)C)NC(=O)[C@H](CCCNC(=N)N)NC(=O)[C@H](CCC(N)=O)NC(=O)[C@@H](NC(=O)[C@H](C)NC(=O)[C@@H]1CSSC[C@H](NC(=O)[C@@H](N)CCCCNC(=O)CC[C@H](NC(=O)CCCCCCCCCCCCCCCCCCC(=O)O)C(=O)O)C(=O)N[C@@H](CC(N)=O)C(=O)N[C@@H]([C@@H](C)O)C(=O)N[C@@H](C)C(=O)N[C@@H]([C@@H](C)O)C(=O)N1)[C@@H](C)O)C(=O)N1CCC[C@H]1C(=O)N[C@@H](CO)C(=O)N[C@@H](CO)C(=O)N[C@H](C(=O)N[C@@H](CC(N)=O)C(=O)N[C@H](C(=O)NCC(=O)N1CCC[C@H]1C(=O)N[C@@H](CCC(=O)O)C(=O)N[C@H](C(=O)N[C@@H](Cc1ccc(O)cc1)C(N)=O)[C@@H](C)O)C(C)C)[C@@H](C)O

Numbered stars: 1 amine (or outer) side, 2 acyl side, 3 side chain; on linkers, the order of the positions; unused ones are H or OH. Bridge positions count the residues as written; N and C are the ends. Side chains are listed from the residue outwards. Ends that are not written are not given here. * marks the point of attachment. C20 diacid = O=C(O)CCCCCCCCCCCCCCCCCCC(=O)*; γGlu = O=C(O)[C@H](CCC(=O)[*:2])N[*:1]

One assay deals with T1, human calcitonin receptor. Briefly: ratio of IC50 at hCTR over IC50 at hAmylin-R (SPA competition assays). Here is the method: The resulting pellet was resuspended, homogenized and centrifuged (20.000 rpm, 15 min) in a buffer containing 20 mM Na-HEPES and 0.1 mM EDTA (pH 7.4, buffer 2). The resulting pellet was resuspended in buffer 2 and protein concentration was measured (BCA protein Assay, Pierce). The homogenate was kept cold during the whole procedure. The membranes were kept at −80° C. until use. The assay was performed in a 384 well Optiplate (PerkinElmer) in a total volume of 40 ul. Membranes were mixed with SPA beads. Final concentration of membranes 35 ng/μL final and SPA beads was 0.05 mg/well. Test-compounds were dissolved in DMSO and further diluted in assay buffer (50 mM Hepes, pH 7.4, 1 mM CaCl2, 5 mM MgCl₂, 0.1% OA and 0.02% Tween20). […] The final mixture was incubated with shaking at 400 rpm for 120 min at 25° C. prior to centrifugation (1500 rpm, 10 min). Samples were analyzed on TopCounter™ (Packard). The IC₅₀ was calculated using (one site binding competition analysis) GraphPad Prism5 as a measure of receptor affinity.
Membranes were prepared in the following way; the cells were rinsed with PBS and incubated with Versene for approximately 5 min before harvesting. The cells were flushed with PBS and the cell-suspension was centrifuged for 5 min at 1000 rpm. Cells were homogenized (Ultrathurrax) in a buffer containing 20 mM Na-HEPES and 10 mM EDTA (pH 7.4) and centrifuged at 20.000 rpm for 15 min. The resulting pellet was resuspended, homogenized and centrifuged (20.000 rpm, 15 min) in a buffer containing 20 mM Na-HEPES and 0.1 mM EDTA (pH 7.4, buffer 2). The resulting pellet was resuspended in buffer 2 and protein concentration was measured (BCA protein Assay, Pierce). The homogenate was kept cold during the whole procedure. The membranes were kept at −80° C. until use. Assay was performed in a 384 well Optiplate (PerkinElmer) in a total volume of 40 ul. Membranes were mixed with SPA beads.
In the case of B1, the “Ratio hCT/hAmylin binding” value amounted to 151.

For B2, the “Ratio hCT/hAmylin binding” value turned out to be 28.5.

Take B3: the “Ratio hCT/hAmylin binding” value amounted to 11.1.

B4: the “Ratio hCT/hAmylin binding” value stood at 16.7.

The target of a further assay is T1, human calcitonin receptor. The assay can be described thus: SPA competition against 125I-calcitonin, membranes of BHK cells with human calcitonin receptor (Assay VII). As for the experimental part:
Membranes were prepared in the following way; the cells were rinsed with PBS and incubated with Versene for approximately 5 min before harvesting. The cells were flushed with PBS and the cell-suspension was centrifuged for 5 min at 1000 rpm. Cells were homogenized (Ultrathurrax) in a buffer containing 20 mM Na-HEPES and 10 mM EDTA (pH 7.4) and centrifuged at 20.000 rpm for 15 min. The resulting pellet was resuspended, homogenized and centrifuged (20.000 rpm, 15 min) in a buffer containing 20 mM Na-HEPES and 0.1 mM EDTA (pH 7.4, buffer 2). The resulting pellet was resuspended in buffer 2 and protein concentration was measured (BCA protein Assay, Pierce). The homogenate was kept cold during the whole procedure. The membranes were kept at −80° C. until use. Assay was performed in a 384 well Optiplate (PerkinElmer) in a total volume of 40 ul. Membranes were mixed with SPA beads. Final concentration of membranes 35 ng/μL final and Final concentration of SPA beads was 0.05 mg/well. Test-compounds were dissolved in DMSO and further diluted in assay buffer (50 mM Hepes, pH 7.4, 1 mM CaCl2, 5 mM MgCl₂, 0.1% OA and 0.02% Tween20). […] The final mixture was incubated for 120 min with shaking at 400 rpm at 25° C. prior to centrifugation (1500 rpm, 10 min). Samples were analyzed on TopCounter™ (Packard). The […] was calculated using (one site binding competition analysis) GraphPad Prism5 as a measure of receptor affinity.
As to B1, the IC50 amounted to 42.5 nM.

On to B2, for which the IC50 amounted to 6.62 nM.

On to B3, for which the IC50 was 4.28 nM.

With B4, the IC50 stood at 3.27 nM.

Values taken from patent publication US20140087995A1 (published 2014).
